From patent publication US20260250420A1 (SICHUAN KELUN BIOTECH BIOPHARMACEUTICAL, published 2026)
Blank lines part the entries; values can stand above or below the binder they belong to.

Key:
[1] = molecular target: T1, human Fc receptor protein FcRn (human, UniProt P55899 24-297; P61769 21-119, biotinylated); test: BLI (ForteBio), biotinylated receptor on SA sensor, antibody from 5,000 nM, 1:1 global fit
T1 construct: Biotinylated protein captured on SA sensors
Description: The dynamic affinity of the antibodies 101A6HZ, 101A6HZm and Hu24 with human Fc receptor proteins CD16a, CD32a, CD32b, CD64 and FcRn was detected through ForteBio (Pall life sciences).

[2] = molecular target: T2, human PTK7 protein (extracellular sequence of human PTK7 with C-terminal 6×His tag) (human, UniProt Q13308 31-704); test: competition ELISA on coated human PTK7 protein; competitor: biotin-labelled 101A6HZ at a fixed concentration
T2 construct: extracellular domain; Expressed transiently in HEK293 cells; also called human PTK7-His; human PTK7-His protein
T2 sequence: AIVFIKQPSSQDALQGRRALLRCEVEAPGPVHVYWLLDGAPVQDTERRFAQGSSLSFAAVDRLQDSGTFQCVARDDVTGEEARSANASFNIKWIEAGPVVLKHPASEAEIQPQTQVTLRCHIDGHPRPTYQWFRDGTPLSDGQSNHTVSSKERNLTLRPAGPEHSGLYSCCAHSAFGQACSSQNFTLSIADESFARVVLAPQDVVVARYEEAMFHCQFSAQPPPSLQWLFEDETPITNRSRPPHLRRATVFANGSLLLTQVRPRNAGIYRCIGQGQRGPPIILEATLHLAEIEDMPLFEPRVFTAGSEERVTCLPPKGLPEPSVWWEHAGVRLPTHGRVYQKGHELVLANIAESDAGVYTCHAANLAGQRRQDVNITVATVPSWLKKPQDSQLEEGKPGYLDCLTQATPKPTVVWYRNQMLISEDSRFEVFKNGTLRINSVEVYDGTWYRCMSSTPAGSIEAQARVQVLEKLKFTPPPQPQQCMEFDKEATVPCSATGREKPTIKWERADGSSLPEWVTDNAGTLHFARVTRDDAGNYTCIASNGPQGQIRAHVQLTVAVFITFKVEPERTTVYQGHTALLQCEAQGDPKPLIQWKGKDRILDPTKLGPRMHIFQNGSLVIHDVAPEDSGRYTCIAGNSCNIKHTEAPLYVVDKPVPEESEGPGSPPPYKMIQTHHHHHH
Protocol: The human PTK7 protein was diluted to reach 1 μg/ml by using the CBS coating liquid, coated by a 96-well microtiter plate at a density of 100 μl/well, and stood overnight at 4° C.; and after the plate was washed and blocked, the biotin-labeled antibody and the to-be-detected antibody were added, and incubated for 2 h at room temperature. After the plate was washed, the secondary antibody was added for incubation, and finally was subjected to color development, then the reaction was terminated, and the absorbance at OD₄₅₀ nm was read by the microplate reader. The original data was imported into software for nonlinear curve fitting (four parameters).

[3] = molecular target: T3, human PTK7 on cells (tumor cells endogenously expressing PTK7); CHO-hPTK7, CHO-S-hPTK7 and 293T-hPTK7 … (human, UniProt Q13308 31-1070); test: competition flow cytometry on 293T-hPTK7 cells, streptavidin-PE; competitor: biotin-labelled 101A6HZ
T3 construct: whole, on cells; The cell line of each value is named under assay; also called H1299; H358
T3 sequence (looked up): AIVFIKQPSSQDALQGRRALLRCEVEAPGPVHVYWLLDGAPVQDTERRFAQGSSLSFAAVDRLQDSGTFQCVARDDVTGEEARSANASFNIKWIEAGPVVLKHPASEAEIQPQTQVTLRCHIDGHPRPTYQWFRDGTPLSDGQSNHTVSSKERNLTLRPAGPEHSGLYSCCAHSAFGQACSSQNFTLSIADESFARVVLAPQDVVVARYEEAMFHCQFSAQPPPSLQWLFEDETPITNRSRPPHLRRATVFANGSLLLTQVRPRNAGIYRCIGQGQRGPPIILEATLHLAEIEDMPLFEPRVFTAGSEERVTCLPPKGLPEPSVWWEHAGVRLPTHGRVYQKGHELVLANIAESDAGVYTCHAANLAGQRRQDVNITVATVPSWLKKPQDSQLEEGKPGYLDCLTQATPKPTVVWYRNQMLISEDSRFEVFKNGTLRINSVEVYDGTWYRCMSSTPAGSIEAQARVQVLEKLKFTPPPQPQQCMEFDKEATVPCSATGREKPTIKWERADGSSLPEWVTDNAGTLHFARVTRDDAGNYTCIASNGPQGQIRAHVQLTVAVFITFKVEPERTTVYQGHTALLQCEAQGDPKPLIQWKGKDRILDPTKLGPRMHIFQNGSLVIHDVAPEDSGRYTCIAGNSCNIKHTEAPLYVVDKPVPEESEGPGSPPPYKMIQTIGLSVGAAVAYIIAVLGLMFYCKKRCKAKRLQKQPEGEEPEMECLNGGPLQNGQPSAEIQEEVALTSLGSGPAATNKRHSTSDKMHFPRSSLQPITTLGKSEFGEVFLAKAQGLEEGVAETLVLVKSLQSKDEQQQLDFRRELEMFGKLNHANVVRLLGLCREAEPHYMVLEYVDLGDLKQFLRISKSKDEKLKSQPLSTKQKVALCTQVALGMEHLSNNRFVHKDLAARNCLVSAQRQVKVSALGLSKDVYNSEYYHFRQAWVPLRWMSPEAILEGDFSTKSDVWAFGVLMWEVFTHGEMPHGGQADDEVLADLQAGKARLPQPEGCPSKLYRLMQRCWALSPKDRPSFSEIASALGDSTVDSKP

[4] = molecular target: T3, human PTK7 on cells (tumor cells …); test: flow cytometry on H1299 cells endogenously expressing PTK7
[5] = molecular target: T3, human PTK7 on cells (tumor cells …); test: cell-based or functional assay
[6] = molecular target: T3, human PTK7 on cells (tumor cells …); test: competition flow cytometry on 293T-hPTK7 cells, streptavidin-PE; competitor: biotin-labelled Hu24

- Kd [1]: 11.8 nM
- IC50 (read off the curve) [2]: ~0.08 µg/mL
- IC50 (read off the curve) [3]: ~1 µg/mL
B1: 101A6HZ (anti-human PTK7 humanized antibody) (antibody, human IgG1, kappa)
heavy: not shown
light: DIVMTQSPDSLAVSLGERATINCKASQDVGSAVIWYQQKPGQSPKLLIYWASTRHTGVPDRFSGSGSGTDFTLTISSLQAEDVAVYYCQQYSSYPLTFGQGTKLEIKRTVAAPSVFIFPPSDEQLKSGTASVVCLLNNFYPREAKVQWKVDNALQSGNSQESVTEQDSKDSTYSLSSTLTLSKADYEKHKVYACEVTHQGLSSPVTKSFNRGEC

- EC50 [4]: 0.293 µg/mL
- Cell endocytosis, EC50, A431 cells [5]: 0.0743 µg/mL
- Cell endocytosis, EC50, HCC1806 cells [5]: 0.0659 µg/mL
- Cell endocytosis, EC50, NCI-H358 cells [5]: 0.0708 µg/mL
- Cell endocytosis, EC50, OVCAR3 cells [5]: 0.101 µg/mL
- IC50 (read off the curve) [6]: ~0.3 µg/mL
B2: Hu24 (PTK7 control antibody, taken from Hu24 in the Patent CN201580030255) (antibody)
chain 1: QVQLVQSGPEVKKPGASVKVSCKASGYTFTDYAVHWVRQAPGKRLEWIGVISTYNDYTYNNQDFKGRVTMTRDTSASTAYMELSRLRSEDTAVYYCARGNSYFYALDYWGQGTSVTVSS
chain 2: EIVLTQSPATLSLSPGERATLSCRASESVDSYGKSFMHWYQQKPGQAPRLLIYRASNLESGIPARFSGSGSGTDFTLTISSLEPEDFAVYYCQQSNEDPWTFGGGTKLEIK
